Experimental data reported in patent publication US20200109212A1 (INTERVET, published 2020).

Experiments:
[1] = target: T1, canine PD-L1 extracellular domain-human IgG1 Fc fusion protein (canine); experiment: ELISA, plate coated with canine PD-L1-hFc, two-fold dilutions of mAb, detection with HRP goat anti-mouse IgG, OD 650/490
T1 construct: Expressed in HEK 293 cells and purified on Protein A; also called canine PD-L1-hFc fusion protein; cPD-L1-hFc
Method: Hybridoma cells in the cell chamber were expanded to approximately 2.5×10⁷ cells/mL over 3-7 days. Then, 10 mL of cell suspension was harvested from the cell chamber and replaced with fresh media to allow for re-expansion of cells and subsequent harvests. This procedure was repeated as necessary to obtain adequate amounts of mAb from each hybridoma clone. Harvested cell suspensions were centrifuged and the supernatants were filtered through 0.2 micron filter membranes. For antibody purification, each clone's supernatant was purified using a Protein G Sepharose 4 Fast flow 5 mL column (GE Healthcare) by gravity flow. After washing with Tris-EDTA (TE) buffer pH 8.0, bound antibodies were eluted using 0.1 M glycine buffer, pH 2.7, followed by pH neutralization using 1 M Tris, pH 8.0. Antibodies were concentrated and buffer exchanged into phosphate-buffered saline (PBS) using Centriprep YM-10.10 kDa NMWL centrifugal filter units (Millipore). Antibody concentrations were quantified using spectrophotometry. […] The color reaction is allowed to develop for 5-20 minutes at 37° C. prior to measuring absorbance at 650 nm.

[2] = target: T1, canine PD-L1 extracellular domain-human …; experiment: cell-based ELISA (CELISA): mAb pre-incubated with cPD-L1-hFc, then added to CHO cells expressing canine PD-1; bound cPD-L1-hFc detected with anti-human Fc-HRP, OD 450-620 nm; blocked partner: canine PD-1
Method: Ligand blockade was confirmed using this assay in conjunction with canine PD-L1/h Fec protein as follows: [0233] 1. Seed cPD-1 CHO cells in 96-well plates and grow the cells to 95-100% confluent. [0234] General guidelines for plating CHO cells, [0235] on day −3: […] (1×10⁵c/mL) [0236] −2: 2×10⁴ c/well ([…]) [0237] −1: 4×10⁴ c/well (4×10⁵ c/mL) [0238] 2. 3-fold dilute anti-cPDL1 mAbs in CHO media, starting at 30 μg/mL, 100 μL/well. Add cPD-L1-hFc to 4 μg/ml in CHO media, 100 μL/well, co-incubate in a dilution plate at 37° C., 5% CO₂ with shaking for 60 min. [0239] 3. Aspirate cell culture media from the cell coated plates, wash the plates 3×PBS+0.05% Tween20 and 1×CHO media. [0240] 4. Add the co-incubated cPD-L1 mAbs/PD-L1 Fc from the dilution plate to the cell coated plate. 100 uL/well. Incubate at 37° C., 5% CO₂ with shaking for 60 min. [0241] 5. Wash the plates 6×PBS+0.05% Tween 20 (using manual wash protocol). [0242] 6. Add Anti-Human Fc-HRP (Calbiochem) (1:2500) in CHO media, 100 ul/well, incubate 30-60 min at 37° C./5% CO₂. [0243] 7. Wash the plates 5×PBS+0.05% Tween20 (using manual wash protocol). [0244] 8. Add 100 μl/well TMB mircowell substrate. Incubate at room temp for 10 minutes. Use one step substrate from Pierce. [0245] 9. Stop with 100 μl/well 1.5M Phosphoric acid. [0246] 10. Measure A450-A620 on the ELISA reader.

T1 sequence (chain, as listed by the source limits assumed): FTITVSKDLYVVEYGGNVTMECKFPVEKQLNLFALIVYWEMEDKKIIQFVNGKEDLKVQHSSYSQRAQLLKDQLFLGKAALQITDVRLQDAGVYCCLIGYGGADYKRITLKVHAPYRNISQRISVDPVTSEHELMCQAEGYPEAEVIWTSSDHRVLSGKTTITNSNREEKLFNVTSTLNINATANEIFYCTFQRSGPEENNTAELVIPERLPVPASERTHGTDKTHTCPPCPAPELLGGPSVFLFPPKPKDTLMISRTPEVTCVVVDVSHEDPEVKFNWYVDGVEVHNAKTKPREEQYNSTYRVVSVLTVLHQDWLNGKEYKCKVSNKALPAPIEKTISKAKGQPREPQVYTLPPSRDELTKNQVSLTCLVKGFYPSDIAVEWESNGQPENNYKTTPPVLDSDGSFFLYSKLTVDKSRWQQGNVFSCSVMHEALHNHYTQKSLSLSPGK

B1: mouse anti-canine PD-L1 monoclonal antibody 5F12 (antibody, V domains shown)
VH: QVQLQQSGPELVKPGASVKISCKASGYTFTDYYMNWVKQRPGQGLEWIGWIFPGSGATYYNERFMGKATLTVDKSSNTAYMLFSSLTSEDSAVYFCLRSDWDVGDFWGQGTTLTVSS
VL: DIVMTQAAFSNPVTLGTSASISCRSSRSLLHTNGITYLSWFLQKPGQSPQLLIYQMSNLASGVPDRFSSSGSGTDFTLRISRVEAEDVGIYYCAQTLGLPRTFGGGTKLEIK
notes: also called mAb 5F12; Anti-PDL-1 5F12
[1]
  binding result: binds

B2: mouse anti-canine PD-L1 monoclonal antibody 4F9 (antibody, V domains shown)
VH: EVQLVESGGGLVKPGGSLKLSCAASGFTFSSYAMSWVRQTPDKRLEWVATISDGGSYTHYPDNLMGRFTISRDNAKNNLYLQMSHLKSDDTAMYYCARESYDGYYVANWGQGTLVTVSA
VL: DIVLTQSPATLSVNPGDSVSLSCRASQSISNNLHWYQQKSHESPRLLIKYASQSISGIPSRFSGSGSGTDFTLSINSVETEDFGMYFCQQSNSWPQTFGGGTKLEIK
notes: also called mAb 4F9
[2]
  IC50 (read off the curve): ~20 nM
